Laboratory results published in PMC5683014 (Acta Crystallographica. Section D, Structural Biology, 2017).
Each block holds one molecule with its values, some of them ahead of it.

Experiments:
Assay in all cases: BLI; BLItz (ForteBio); biotinylated Fab loaded on streptavidin biosensors (rehydrated in PBS with 0.1% BSA); lysozymes passed on and off at a range of concentrations; global fits of kinetics (BlitzPro 1.2.1.3)
HyHEL10 Fab = biological target: HyHEL10 Fab
[1] = biological target: T1, Pekin duck egg lysozyme isoform I (Anas platyrhynchos, Pekin duck, …, strain); conditions: both partners purified
T1 construct: Allelic isoform I of C-type lysozyme of Pekin duck (Anas platyrhynchos), 129 positions; Asp66 and Asn103; First of three peaks eluted from CM resin; Observed intact mass 14391.88 Da; also called DEL-I; DL-1 (Kondo); source: purified from Pekin duck egg white (CM ion exchange, gel filtration)
T1 chain: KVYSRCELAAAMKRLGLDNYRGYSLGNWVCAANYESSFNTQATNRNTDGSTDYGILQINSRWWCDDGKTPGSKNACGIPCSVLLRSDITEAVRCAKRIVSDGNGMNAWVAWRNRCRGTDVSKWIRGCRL

[2] = biological target: T2, Pekin duck egg lysozyme isoform II (Anas platyrhynchos, Pekin duck, …, UniProt P00705, strain); conditions: both partners purified
T2 construct: Isoform II of C-type lysozyme of Pekin duck (Anas platyrhynchos), 129 positions; entry P00705 (Kondo DL-2) differs at residues 66 and 103; Second of three peaks eluted from CM resin; Observed intact mass 14460.98 Da; No crystal structure; also called DEL-II; DL-2 (Kondo); source: purified from Pekin duck egg white (CM ion exchange, gel filtration)

- Kd (HyHEL10 Fab): > 1000 nM
Molecule: Pekin duck egg lysozyme isoform III (enzyme)

- Kd [1]: 40 nM
- Kd [2]: 34 nM
B1: HyHEL10 Fab (Fab, V domains shown)
VH: DVQLQESGPSLVKPSQTLSLTCSVTGDSITSDYWSWIRKFPGNRLEYMGYVSYSGSTYYNPSLKSRISITRDTSKNQYYLDLNSVTTEDTATYYCANWDGDYWGQGTLVTVSA
VL: DIVLTQSPATLSVTPGNSVSLSCRASQSIGNNLHWYQQKSHESPRLLIKYASQSISGIPSRFSGSGSGTDFTLSINSVETEDFGMYFCQQSNSWPYTFGGGTKLEIK
notes: HyHEL10 Fab heavy chain; HyHEL10 kappa light chain; Cloned into pCEP4; also called HyHEL10 Fab arm; source: Expi293, transiently expressed, purified from supernatant (HisTrap FF Crude)
